# According to the supplement of paper PMC10567573:
# B1: C22orf15 (parent)
# chain: PRGRAHLLPNPYQQDFLGLPEELR
# B2: SOAT1 (parent)
# chain: GVLILFLTFFAFLHCWLNAFAEML
# Variants of: B1
# Assay: protein stability index of a GFP-peptide fusion (GPS, HEK-293T) (PSI 1-6); higher = more stable
# Conditions: c terminus: a fixed tail appended
# 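Also: lentivirally expressed fusions sorted by FACS into six bins by GFP to DsRed ratio, PSI derived from sequencing read proportions per bin multiplied by bin number.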
row,Variant,protein stability index
1,FRGRAHLLPNPYQQDFLGLPEELR,2.61
2,IRGRAHLLPNPYQQDFLGLPEELR,2.37
3,GRGRAHLLPNPYQQDFLGLPEELR,3.75
4,ARGRAHLLPNPYQQDFLGLPEELR,3.34
5,ERGRAHLLPNPYQQDFLGLPEELR,3.96
6,DRGRAHLLPNPYQQDFLGLPEELR,4.1
7,CRGRAHLLPNPYQQDFLGLPEELR,2.22
8,HRGRAHLLPNPYQQDFLGLPEELR,3.6

# Variants of: B2
# Assay: as above
# Conditions: c terminus: a fixed tail appended
row,Variant,protein stability index
1,GVLILFLTFFAFLHCWLKAFAEML,2.48
2,GVLILFLTFFAFLHCWLCAFAEML,1.59
3,GVLILFLTFFAFLHCWLVAFAEML,2.45
4,GVLILFLTFFAFLHCWLPAFAEML,3.85
5,GVLILFLTFFAFLHCWLFAFAEML,3.51
6,GVLILFLTFFAFLHCWLHAFAEML,2.92
7,GVLILFLTFFAFLHCWLYAFAEML,2.61
8,GVLILFLTFFAFLHCWLGAFAEML,2.52
9,GVLILFLTFFAFLHCWLLAFAEML,3.64
10,GVLILFLTFFAFLHCWLWAFAEML,2.94
11,GVLILFLTFFAFLHCWLMAFAEML,2.78
12,GVLILFLTFFAFLHCWLRAFAEML,2.55
13,GVLILFLTFFAFLHCWLQAFAEML,2.81
14,GVLILFLTFFAFLHCWLEAFAEML,3.51
15,GVLILFLTFFAFLHCWLIAFAEML,2.85
16,GVLILFLTFFAFLHCWLSAFAEML,2.51
17,GVLILFLTFFAFLHCWLTAFAEML,3
18,GVLILFLTFFAFLHCWLDAFAEML,1.71
19,GVLILFLTFFAFLHCWLNAFAEMN,2.98
20,GVLILFLTFFAFLHCWLNAFAEMK,3.06
21,GVLILFLTFFAFLHCWLNAFAEMM,2.72
22,GVLILFLTFFAFLHCWLNAFAEMC,3.67
23,GVLILFLTFFAFLHCWLNAFAEMP,2.68
24,GVLILFLTFFAFLHCWLNAFAEMG,3.4
25,GVLILFLTFFAFLHCWLNAFAEMV,2.75
26,GVLILFLTFFAFLHCWLNAFAEMW,2.06

row,Variant,protein stability index
1,GVLILFLTFFAFLHCWLNAFAEMR,2.33
2,GVLILFLTFFAFLHCWLNAFAEMQ,3.14
3,GVLILFLTFFAFLHCWLNAFAEMS,3.29
4,GVLILFLTFFAFLHCWLNAFAEMY,2.88
5,GVLILFLTFFAFLHCWLNAFAEME,3.41
6,GVLILFLTFFAFLHCWLNAFAEMA,2.69
7,GVLILFLTFFAFLHCWLNAFAEMD,1.75
8,GVLILFLTFFAFLHCWLNAFAEMT,3.04
9,GVLILFLTFFAFLHCWLNAFAEMF,2.23
10,GVLILFLTFFAFLHCWLNAFAEMI,2.63
11,GVLILFLTFFAFLHCWLNAFAELL,2.88
12,GVLILFLTFFAFLHCWLNAFAEDL,2.29
13,GVLILFLTFFAFLHCWLNAFAEAL,2.44
14,GVLILFLTFFAFLHCWLNAFAEVL,2.08
15,GVLILFLTFFAFLHCWLNAFAECL,3.08
16,GVLILFLTFFAFLHCWLNAFAEQL,2.73
17,GVLILFLTFFAFLHCWLNAFAESL,3.71
18,GVLILFLTFFAFLHCWLNAFAEHL,2.55
19,GVLILFLTFFAFLHCWLNAFAEWL,2.61
20,GVLILFLTFFAFLHCWLNAFAENL,2.68
21,GVLILFLTFFAFLHCWLNAFAEPL,3.44
22,GVLILFLTFFAFLHCWLNAFAERL,2.77
23,GVLILFLTFFAFLHCWLNAFAEKL,2.91
24,GVLILFLTFFAFLHCWLNAFAEYL,2.54
25,GVLILFLTFFAFLHCWLNAFAETL,2.98
26,GVLILFLTFFAFLHCWLNAFAEGL,2.18

row,Variant,protein stability index
1,GVLILFLTFFAFLHCWLNAFAEIL,2.85
2,GVLILFLTFFAFLHCWLNAFAEEL,1.75
3,GVLILFLTFFAFLHCWLNAFAEFL,2.67
4,GVLILFLTFFAFLHCWQNAFAEML,2.24
5,GVLILFLTFFAFLHCWHNAFAEML,1.87
6,GVLILFLTFFAFLHCWENAFAEML,3.02
7,GVLILFLTFFAFLHCWCNAFAEML,2.63
8,GVLILFLTFFAFLHCWFNAFAEML,2.8
9,GVLILFLTFFAFLHCWDNAFAEML,2.9
10,GVLILFLTFFAFLHCWVNAFAEML,3.02
11,GVLILFLTFFAFLHCWYNAFAEML,3.42
12,GVLILFLTFFAFLHCWTNAFAEML,2.88
13,GVLILFLTFFAFLHCWRNAFAEML,3.44
14,GVLILFLTFFAFLHCWNNAFAEML,2.84
15,GVLILFLTFFAFLHCWKNAFAEML,3.15
16,GVLILFLTFFAFLHCWGNAFAEML,2.06
17,GVLILFLTFFAFLHCWINAFAEML,2.26
18,GVLILFLTFFAFLHCWANAFAEML,2.74
19,GVLILFLTFFAFLHCWSNAFAEML,1.44
20,GVLILFLTFFAFLHCWWNAFAEML,2.44
21,GVLILFLTFFAFLHCWMNAFAEML,2.95
22,GVLILFLTFFAFLHCWPNAFAEML,2.22
23,GVLILFLTFFAFLHCWLNAVAEML,3.21
24,GVLILFLTFFAFLHCWLNASAEML,2.94
25,GVLILFLTFFAFLHCWLNAAAEML,3.08
26,GVLILFLTFFAFLHCWLNAGAEML,2.22

row,Variant,protein stability index
1,GVLILFLTFFAFLHCWLNARAEML,2.89
2,GVLILFLTFFAFLHCWLNAKAEML,2.71
3,GVLILFLTFFAFLHCWLNAHAEML,3.21
4,GVLILFLTFFAFLHCWLNAEAEML,2.67
5,GVLILFLTFFAFLHCWLNAMAEML,2.85
6,GVLILFLTFFAFLHCWLNAPAEML,2.93
7,GVLILFLTFFAFLHCWLNANAEML,2.01
8,GVLILFLTFFAFLHCWLNAYAEML,2.9
9,GVLILFLTFFAFLHCWLNACAEML,2.33
10,GVLILFLTFFAFLHCWLNALAEML,2.56
11,GVLILFLTFFAFLHCWLNAWAEML,3.57
12,GVLILFLTFFAFLHCWLNATAEML,1.98
13,GVLILFLTFFAFLHCWLNADAEML,3.92
14,GVLILFLTFFAFLHCWLNAIAEML,2.67
15,GVLILFLTFFAFLHCYLNAFAEML,2.31
16,GVLILFLTFFAFLHCLLNAFAEML,3.2
17,GVLILFLTFFAFLHCELNAFAEML,3.24
18,GVLILFLTFFAFLHCDLNAFAEML,2.4
19,GVLILFLTFFAFLHCGLNAFAEML,3.64
20,GVLILFLTFFAFLHCALNAFAEML,2
21,GVLILFLTFFAFLHCSLNAFAEML,3.04
22,GVLILFLTFFAFLHCTLNAFAEML,3.45
23,GVLILFLTFFAFLHCKLNAFAEML,2.19
24,GVLILFLTFFAFLHCCLNAFAEML,2.68
25,GVLILFLTFFAFLHCQLNAFAEML,2.55
26,GVLILFLTFFAFLHCMLNAFAEML,3.65

row,Variant,protein stability index
1,GVLILFLTFFAFLHCFLNAFAEML,3.85
2,GVLILFLTFFAFLHCNLNAFAEML,2.59
3,GVLILFLTFFAFLHCVLNAFAEML,3.12
4,GVLILFLTFFAFLHCPLNAFAEML,2.19
5,GVLILFLTFFAFLHCILNAFAEML,2.96
6,GVLILFLTFFAFLHCHLNAFAEML,3.94
7,GVLILFLTFFAFLHCWLNIFAEML,2.76
8,GVLILFLTFFAFLHCWLNLFAEML,3.05
9,GVLILFLTFFAFLHCWLNDFAEML,2.85
10,GVLILFLTFFAFLHCWLNGFAEML,3.14
11,GVLILFLTFFAFLHCWLNRFAEML,1.64
12,GVLILFLTFFAFLHCWLNTFAEML,2.82
13,GVLILFLTFFAFLHCWLNYFAEML,2.29
14,GVLILFLTFFAFLHCWLNCFAEML,2.73
15,GVLILFLTFFAFLHCWLNVFAEML,2.77
16,GVLILFLTFFAFLHCWLNEFAEML,3.48
17,GVLILFLTFFAFLHCWLNHFAEML,3.33
18,GVLILFLTFFAFLHCWLNWFAEML,1.73
19,GVLILFLTFFAFLHCWLNSFAEML,2.83
20,GVLILFLTFFAFLHCWLNFFAEML,1.68
21,GVLILFLTFFAFLHCWLNKFAEML,2.96
22,GVLILFLTFFAFLHCWLNNFAEML,2.8
23,GVLILFLTFFAFLHCWLNQFAEML,2.59
24,GVLILFLTFFAFLHCWLNPFAEML,2.31
25,GVLILFLTFFAFLHCWLNMFAEML,3.03
26,GVLILFLTFFAFLHCWLNAFCEML,2.48

row,Variant,protein stability index
1,GVLILFLTFFAFLHCWLNAFEEML,1.83
2,GVLILFLTFFAFLHCWLNAFSEML,1.84
3,GVLILFLTFFAFLHCWLNAFFEML,3.12
4,GVLILFLTFFAFLHCWLNAFVEML,2.73
5,GVLILFLTFFAFLHCWLNAFNEML,2.76
6,GVLILFLTFFAFLHCWLNAFGEML,2.77
7,GVLILFLTFFAFLHCWLNAFMEML,3.62
8,GVLILFLTFFAFLHCWLNAFTEML,2.29
9,GVLILFLTFFAFLHCWLNAFHEML,2.98
10,GVLILFLTFFAFLHCWLNAFQEML,3.1
11,GVLILFLTFFAFLHCWLNAFREML,2.11
12,GVLILFLTFFAFLHCWLNAFYEML,1.84
13,GVLILFLTFFAFLHCWLNAFPEML,2.29
14,GVLILFLTFFAFLHCWLNAFIEML,2.93
15,GVLILFLTFFAFLHCWLNAFLEML,1.4
16,GVLILFLTFFAFLHCWLNAFDEML,2.14
17,GVLILFLTFFAFLHCWLNAFKEML,2.01
18,GVLILFLTFFAFLHCWLNAFAPML,3.59
19,GVLILFLTFFAFLHCWLNAFAFML,3.34
20,GVLILFLTFFAFLHCWLNAFAWML,3.25
21,GVLILFLTFFAFLHCWLNAFANML,2.79
22,GVLILFLTFFAFLHCWLNAFATML,2.47
23,GVLILFLTFFAFLHCWLNAFASML,3.37
24,GVLILFLTFFAFLHCWLNAFAAML,1.99
25,GVLILFLTFFAFLHCWLNAFAGML,2.16
26,GVLILFLTFFAFLHCWLNAFAHML,3.56

row,Variant,protein stability index
1,GVLILFLTFFAFLHCWLNAFARML,1.7
2,GVLILFLTFFAFLHCWLNAFAVML,3.24
3,GVLILFLTFFAFLHCWLNAFADML,2.19
4,GVLILFLTFFAFLHCWLNAFAKML,2.31
5,GVLILFLTFFAFLHCWLNAFAYML,2.22
6,GVLILFLTFFAFLHCWLNAFACML,2.74
7,GVLILFLTFFAFLHCWLNAFAQML,2.63
8,GVLILFLTFFAFLHCWLNAFAIML,2.95
9,GVLILFLTFFAFLHCWLNAFAMML,3.66
10,GVLILFLTFFAFLHCWLNAFALML,2.92
11,GVLILFLTFFAFLHHWLNAFAEML,1.99
12,GVLILFLTFFAFLHWWLNAFAEML,3.12
13,GVLILFLTFFAFLHRWLNAFAEML,1.95
14,GVLILFLTFFAFLHLWLNAFAEML,2.97
15,GVLILFLTFFAFLHPWLNAFAEML,2.81
16,GVLILFLTFFAFLHQWLNAFAEML,3.3
17,GVLILFLTFFAFLHKWLNAFAEML,3.47
18,GVLILFLTFFAFLHMWLNAFAEML,3.37
19,GVLILFLTFFAFLHSWLNAFAEML,1.83
20,GVLILFLTFFAFLHVWLNAFAEML,2
21,GVLILFLTFFAFLHYWLNAFAEML,2.79
22,GVLILFLTFFAFLHNWLNAFAEML,3.02
23,GVLILFLTFFAFLHIWLNAFAEML,2.55
24,GVLILFLTFFAFLHTWLNAFAEML,2.47
